In US20230313187A1, “MODIFICATIONS OF MAMMALIAN CELLS USING ARTIFICIAL MICRO-RNA TO ALTER THEIR PROPERTIES AND THE COMPOSITIONS OF THEIR PRODUCTS” (DNA TWOPOINTO INC., priority 2020, published 2023):

B1: SEQ ID NO: 601: four-hairpin amiRNA, two guides to interferon receptor subunit 1 mRNA and two to subunit 2 mRNA (nucleic acid)
chain: ATCTGATCTTCTGAAGAAAATATATTTCTTTTTATTCATAGCTCTTAACTAGTGGTGATAGCAATGTCAGCAGTGCCTTAGTGTAGACAACAGTACCTCTGTGAAGCCACAGATGAGAGGTACTATTGTCTACACTCAAGTAAGGTTGACCATACTCTACTCTAGTTATATTCTTTAGGCACGAATGTGTGTTTAAAAAAAATAAAAACTAGTGGTGATAGCAATGTCAGCAGTGCCTTTCCACGTCTGTCTTGTCCTACGTGAAGCCACAGATGGTAGGACAAGCCAGACGTGGACAAGTAAGGTTGACCATACTCTACTCTAGAGTTGTGTTTTAATGTATATTAATGTTACTAATGTGTTTACTAGTGGTGATAGCAATGTCAGCAGTGCCTTAAACAACAATGGATCCCCAAAGTGAAGCCACAGATGTTTGGGGATCAATTGTTGTTTCAAGTAAGGTTGACCATACTCTACTCTAGGTTATTTTTAGTATGATTCTGTAAAAATGAATTAATACTAACTAGTGGTGATAGCAATGTCAGCAGTGCCTTAACACAGTACCGCCTTAGTGCGTGAAGCCACAGATGGCACTAAGGCAGTACTGTGTTCAAGTAAGGTTGACCATACTCTACTCTAGTCAGTTTTATTGATAGTCTTTTCAGTATTATTGATAATCTT
B2: SEQ ID NO: 600: five-hairpin amiRNA, two guides to interferon receptor subunit 1 mRNA and three to subunit 2 mRNA (nucleic acid)
chain: ATCTGATCTTCTGAAGAAAATATATTTCTTTTTATTCATAGCTCTTAACTAGTGGTGATAGCAATGTCAGCAGTGCCTAAGACTATCAGCAAGAACCAGGGTGAAGCCACAGATGCCTGGTTCTTACTGATAGTCTCAAGTAAGGTTGACCATACTCTACTCTAGTTATATTCTTTAGGCACGAATGTGTGTTTAAAAAAAATAAAAACTAGTGGTGATAGCAATGTCAGCAGTGCCTTAAAATAACACACAAGAGCCATGTGAAGCCACAGATGATGGCTCTTGCGTGTTATTTTCAAGTAAGGTTGACCATACTCTACTCTAGAGTTGTGTTTTAATGTATATTAATGTTACTAATGTGTTTACTAGTGGTGATAGCAATGTCAGCAGTGCCTTTGAAGATAACTTTGTCCCCGGGTGAAGCCACAGATGCCGGGGACAACGTTATCTTCACAAGTAAGGTTGACCATACTCTACTCTAGGTTATTTTTAGTATGATTCTGTAAAAATGAATTAATACTAACTAGTGGTGATAGCAATGTCAGCAGTGCCTTTAAACAGTAAGTAGTCTCTGGGTGAAGCCACAGATGCCAGAGACTAATTACTGTTTACAAGTAAGGTTGACCATACTCTACTCTAGATTTTTCAGATGTATCATCTCTTAAAATACTGTAATTGCAACTAGTGGTGATAGCAATGTCAGCAGTGCCTTAAACAACAATGGATCCCCAAAGTGAAGCCACAGATGTTTGGGGATCAATTGTTGTTTCAAGTAAGGTTGACCATACTCTACTCTAGTCAGTTTTATTGATAGTCTTTTCAGTATTATTGATAATCTT

System: Cricetulus griseus interferon receptor subunit 1 mRNA and subunit 2 mRNA
Test: Expression of human interferon beta from CHO cells (ELISA), amiRNA to both interferon receptor subunits
Format: cell-based
Settings: for Average Titer: average of duplicate cultures; for interferon beta expression compared with the control transposon: control transposon expressed 48 μg/ml; for Titer: 10-day fed batch
Excerpt: One multi-hairpin amiRNA, with nucleotide sequence SEQ ID NO: 600, comprised five hairpins; the first hairpin comprised a guide strand with nucleotide sequence SEQ ID NO: 103, immediately followed by a loop with nucleotide sequence SEQ ID NO: 241 and passenger strand with nucleotide sequence SEQ ID NO: 188; the second hairpin comprised a guide strand with nucleotide sequence SEQ ID NO: 95, immediately followed by a loop with nucleotide sequence SEQ ID NO: 241 and passenger strand with nucleotide sequence SEQ ID NO: 180; the third hairpin comprised a guide strand with nucleotide sequence SEQ ID NO: 104, immediately followed by a loop with nucleotide sequence SEQ ID NO: 241 and a passenger strand with nucleotide sequence SEQ ID NO: 189; the fourth hairpin comprised a guide strand with nucleotide sequence SEQ ID NO: 97, immediately followed by a loop with nucleotide sequence SEQ ID NO: 241 and a passenger strand with nucleotide sequence SEQ ID NO: 182; the fifth hairpin comprised a guide strand with nucleotide sequence SEQ ID NO: 102, immediately followed by a loop with nucleotide sequence SEQ ID NO: 241 and a passenger strand with nucleotide sequence SEQ ID NO: 187. Two of these five guide strand sequences were a 22 base sequence that was an exact reverse complement of a different region within the Cricetulus griseus interferon receptor subunit 1 mRNA (with nucleotide sequence SEQ ID NO: 19); three of these five guide strand sequences were a 22 base sequence that was an exact reverse complement of a different region within the Cricetulus griseus interferon receptor subunit 2 mRNA (with nucleotide sequence SEQ ID NO: 20). Each passenger strand sequence was complementary to its corresponding guide strand sequence, except that the bases in the passenger strand sequences corresponding to the 5′ base of the guide strand and the twelfth base of the guide strand were changed to be non-complementary.
One multi-hairpin amiRNA, with nucleotide sequence SEQ ID NO: 601, comprised four hairpins; the first hairpin comprised a guide strand with nucleotide sequence SEQ ID NO: 101, immediately followed by a loop with nucleotide sequence SEQ ID NO: 241 and passenger strand with nucleotide sequence SEQ ID NO: 186; the second hairpin comprised a guide strand with nucleotide sequence SEQ ID NO: 99, immediately followed by a loop with nucleotide sequence SEQ ID NO: 241 and passenger strand with nucleotide sequence SEQ ID NO: 184; the third hairpin comprised a guide strand with nucleotide sequence SEQ ID NO: 102, immediately followed by a loop with nucleotide sequence SEQ ID NO: 241 and a passenger strand with nucleotide sequence SEQ ID NO: 187; the fourth hairpin comprised a guide strand with nucleotide sequence SEQ ID NO: 106, immediately followed by a loop with nucleotide sequence SEQ ID NO: 241 and a passenger strand with nucleotide sequence SEQ ID NO: 191. Two of these four guide strand sequences were a 22 base sequence that was an exact reverse complement of a different region within the Cricetulus griseus interferon receptor subunit 1 mRNA (with nucleotide sequence SEQ ID NO: 19); two of these four guide strand sequences were a 22 base sequence that was an exact reverse complement of a different region within the Cricetulus griseus interferon receptor subunit 2 mRNA (with nucleotide sequence SEQ ID NO: 20). Each passenger strand sequence was complementary to its corresponding guide strand sequence, except that the bases in the passenger strand sequences corresponding to the 5′ base of the guide strand and the twelfth base of the guide strand were changed to be non-complementary. […]

[1] = interferon beta in supernatant, first of duplicate cultures
[2] = interferon beta, second of duplicate cultures

| Molecule | Average Titer | interferon beta expression compared with the control transposon | Titer [1] | Titer [2] |
| --- | --- | --- | --- | --- |
| B1 | 88.0 µg/mL | as much as twice the expression levels of interferon beta as the control transposon | 97.3 µg/mL | 78.6 µg/mL |
| B2 | 79.8 µg/mL | as much as twice the expression levels of interferon beta as the control transposon | 80.3 µg/mL | 79.2 µg/mL |
